pKd: −log10 of the molar value.
Molecular target: EVA-4 (UniProt P0C8E9)
Assay: SPR

Chain of EVA-4 (P0C8E9 24-127): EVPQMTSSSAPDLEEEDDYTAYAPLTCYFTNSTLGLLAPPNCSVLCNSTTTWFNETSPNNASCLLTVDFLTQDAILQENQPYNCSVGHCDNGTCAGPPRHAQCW
Chain of CCL13, Q99616 17-98 (ligand; biotin on the Avi-tag (Bir-A ligase); other documents disagree on this pair) (Q99616 17-98): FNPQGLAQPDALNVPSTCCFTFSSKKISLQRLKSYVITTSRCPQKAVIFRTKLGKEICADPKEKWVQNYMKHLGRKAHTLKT

pKd: 6.60
Substance: CCL13, Q99616 17-98 (ligand; biotin on the Avi-tag (Bir-A ligase); other documents disagree on this pair)

From article PMC9478924
